Experimental data reported in patent US20150166621A1 (Hoffmann-La Roche, published 2015).
Square brackets hold non-standard residues; d marks the D form. Nle = CCCC[C@H](N)C(=O)O; Mamp = not defined here; Nva = CCC[C@H](N)C(=O)O

B1: peptide of SEQ ID NO: 66 (peptide)
peptide: Ac-KQYDREFLLDFQF[dM]PA-NH2
B2: peptide of SEQ ID NO: 52 (peptide)
peptide: Ac-KQYDREFLLDFQFMPA-NH2
B3: peptide of SEQ ID NO: 57 (peptide)
peptide: Ac-KQYDREFLLDFQFMAA-NH2
B4: peptide of SEQ ID NO: 59 (peptide)
peptide: Ac-KQYDREFLLAFQFMPA-NH2
B5: peptide of SEQ ID NO: 60 (peptide)
peptide: Ac-KQYDRAFLLDFQFMPA-NH2
B6: peptide of SEQ ID NO: 61 (peptide)
peptide: Ac-KQYAREFLLDFQFMPA-NH2
B7: peptide of SEQ ID NO: 58 (peptide)
peptide: Ac-KQYDREFLLDFQFAPA-NH2
B8: peptide of SEQ ID NO: 63 (peptide)
peptide: Ac-AQYDREFLLDFQFMPA-NH2
B9: peptide of SEQ ID NO: 62 (peptide)
peptide: Ac-KAYDREFLLDFQFMPA-NH2
B10: peptide of SEQ ID NO: 56 (peptide)
peptide: Ac-KQYDREFLLDF-NH2
B11: peptide of SEQ ID NO: 64 (peptide)
peptide: Ac-KQYDREFLLDFQFMP[dA]-NH2
B12: peptide of SEQ ID NO: 76 (peptide)
peptide: Ac-Y[Mamb]LLAFQF[Nle]-NH2
B13: peptide of SEQ ID NO: 79 (peptide)
peptide: Ac-F[5Ava]LLAFQF[Nle]-NH2
B14: peptide of SEQ ID NO: 65 (peptide)
peptide: Ac-KQYDREFLLDFQFM[dP]A-NH2
B15: peptide of SEQ ID NO: 85 (peptide)
peptide: Ac-KRKRFDREFLLAFQF[Nle]-NH2
SMILES: CCCC[C@H](NC(=O)[C@H](Cc1ccccc1)NC(=O)[C@H](CCC(N)=O)NC(=O)[C@H](Cc1ccccc1)NC(=O)[C@H](C)NC(=O)[C@H](CC(C)C)NC(=O)[C@H](CC(C)C)NC(=O)[C@H](Cc1ccccc1)NC(=O)[C@H](CCC(=O)O)NC(=O)[C@H](CCCNC(=N)N)NC(=O)[C@H](CC(=O)O)NC(=O)[C@H](Cc1ccccc1)NC(=O)[C@H](CCCNC(=N)N)NC(=O)[C@H](CCCCN)NC(=O)[C@H](CCCNC(=N)N)NC(=O)[C@H](CCCCN)NC(C)=O)C(N)=O
B16: peptide of SEQ ID NO: 80 (peptide)
peptide: Ac-KRYDREFLLAFQF[Nle]-NH2
SMILES: CCCC[C@H](NC(=O)[C@H](Cc1ccccc1)NC(=O)[C@H](CCC(N)=O)NC(=O)[C@H](Cc1ccccc1)NC(=O)[C@H](C)NC(=O)[C@H](CC(C)C)NC(=O)[C@H](CC(C)C)NC(=O)[C@H](Cc1ccccc1)NC(=O)[C@H](CCC(=O)O)NC(=O)[C@H](CCCNC(=N)N)NC(=O)[C@H](CC(=O)O)NC(=O)[C@H](Cc1ccc(O)cc1)NC(=O)[C@H](CCCNC(=N)N)NC(=O)[C@H](CCCCN)NC(C)=O)C(N)=O
B17: peptide of SEQ ID NO: 84 (peptide)
peptide: Ac-KRFDREFLLAFQF[Nle]-NH2
SMILES: CCCC[C@H](NC(=O)[C@H](Cc1ccccc1)NC(=O)[C@H](CCC(N)=O)NC(=O)[C@H](Cc1ccccc1)NC(=O)[C@H](C)NC(=O)[C@H](CC(C)C)NC(=O)[C@H](CC(C)C)NC(=O)[C@H](Cc1ccccc1)NC(=O)[C@H](CCC(=O)O)NC(=O)[C@H](CCCNC(=N)N)NC(=O)[C@H](CC(=O)O)NC(=O)[C@H](Cc1ccccc1)NC(=O)[C@H](CCCNC(=N)N)NC(=O)[C@H](CCCCN)NC(C)=O)C(N)=O
B18: peptide of SEQ ID NO: 82 (peptide)
peptide: Ac-YDREFLLDFQFMPA-NH2
B19: peptide of SEQ ID NO: 77 (peptide)
peptide: Ac-Y[Mamp]LLAFQF[Nle]-NH2
modifications: reading uncertain
B20: peptide of SEQ ID NO: 70 (peptide)
peptide: Ac-YDREFLLDFQF[Nle]-NH2
SMILES: CCCC[C@H](NC(=O)[C@H](Cc1ccccc1)NC(=O)[C@H](CCC(N)=O)NC(=O)[C@H](Cc1ccccc1)NC(=O)[C@H](CC(=O)O)NC(=O)[C@H](CC(C)C)NC(=O)[C@H](CC(C)C)NC(=O)[C@H](Cc1ccccc1)NC(=O)[C@H](CCC(=O)O)NC(=O)[C@H](CCCNC(=N)N)NC(=O)[C@H](CC(=O)O)NC(=O)[C@H](Cc1ccc(O)cc1)NC(C)=O)C(N)=O
B21: peptide of SEQ ID NO: 75 (peptide)
peptide: YNRQFLLDFQFL
modifications: N-terminal Ac; Nle at 12; C-terminal NH2
B22: peptide of SEQ ID NO: 68 (peptide)
peptide: Ac-YDREFLLDFQFM-NH2
B23: peptide of SEQ ID NO: 74 (peptide)
peptide: Ac-YNREFLLDFQF[Nle]-NH2
SMILES: CCCC[C@H](NC(=O)[C@H](Cc1ccccc1)NC(=O)[C@H](CCC(N)=O)NC(=O)[C@H](Cc1ccccc1)NC(=O)[C@H](CC(=O)O)NC(=O)[C@H](CC(C)C)NC(=O)[C@H](CC(C)C)NC(=O)[C@H](Cc1ccccc1)NC(=O)[C@H](CCC(=O)O)NC(=O)[C@H](CCCNC(=N)N)NC(=O)[C@H](CC(N)=O)NC(=O)[C@H](Cc1ccc(O)cc1)NC(C)=O)C(N)=O
B24: peptide of SEQ ID NO: 71 (peptide)
peptide: YDRQFLLDFQFL
modifications: N-terminal Ac; Nle at 12; C-terminal NH2
B25: peptide of SEQ ID NO: 83 (peptide)
peptide: Ac-[dK]QYDREFLLDFQFMPA-NH2
B26: peptide of SEQ ID NO: 78 (peptide)
peptide: Ac-Y[Nva]LLAFQF[Nle]-NH2
SMILES: CCCC[C@H](NC(=O)[C@H](Cc1ccccc1)NC(=O)[C@H](CCC(N)=O)NC(=O)[C@H](Cc1ccccc1)NC(=O)[C@H](C)NC(=O)[C@H](CC(C)C)NC(=O)[C@H](CC(C)C)NC(=O)[C@H](CCC)NC(=O)[C@H](Cc1ccc(O)cc1)NC(C)=O)C(N)=O
B27: peptide of SEQ ID NO: 54 (peptide)
peptide: Ac-KQYDREFLLDFQFM-NH2
B28: peptide of SEQ ID NO: 67 (peptide)
peptide: Ac-KQYDREFLLDFQ[dF]MPA-NH2
B29: peptide of SEQ ID NO: 53 (peptide)
peptide: Ac-KQYDREFLLDFQFMP-NH2
B30: peptide of SEQ ID NO: 81 (peptide)
peptide: Ac-QYDREFLLDFQFMPA-NH2
B31: peptide of SEQ ID NO: 69 (peptide)
peptide: Ac-YDREFLLDFQF-NH2
B32: peptide of SEQ ID NO: 55 (peptide)
peptide: Ac-KQYDREFLLDFQF-NH2

Target: T1, Human eIF4E (aa 28-217) with a C-terminal His tag (human, UniProt P06730 28-217)
T1 construct: also called HH-eIF4E; eukaryotic initiation factor 4E
T1 sequence (P06730 other isoform, or with tags, fused parts or gaps limits assumed): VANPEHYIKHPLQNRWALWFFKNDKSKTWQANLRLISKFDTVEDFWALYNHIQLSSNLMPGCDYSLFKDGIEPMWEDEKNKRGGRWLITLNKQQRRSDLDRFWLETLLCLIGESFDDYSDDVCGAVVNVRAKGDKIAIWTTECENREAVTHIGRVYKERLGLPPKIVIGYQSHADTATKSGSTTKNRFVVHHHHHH
Assay: TR-FRET competition vs biotin-4G2 peptide on HH-eIF4E;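 further: peptide inhibitors measured in sodium phosphate buffer at pH 6.5 containing KCl, DTT, NP40 and gammaglobulin, with a 20 min incubation at room temperature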
Method: Test peptides (1.6 mM stock in DMSO) were diluted 3 fold in series in DMSO and solutions were diluted 4 fold in Assay Buffer (50 mM NaPi, pH 6.5, 50 mM KCl, 1 mM DTT, 0.004% NP40 and 0.5 mg/ml gammaglobulin). […] The samples were incubated at room temperature for 20 minutes.
IC50 values were calculated using Condoseo software (Genedata AG, Basel, Switzerland).

| Binder | IC50 |
| --- | --- |
| B1 | 7.75 µM |
| B2 | 10.5 µM |
| B3 | 6.96 µM |
| B4 | 1.42 µM |
| B5 | 9.26 µM |
| B6 | 11.8 µM |
| B7 | 11.3 µM |
| B8 | 12.3 µM |
| B9 | 13.6 µM |
| B10 | 3.44 µM |
| B11 | 8.69 µM |
| B12 | 12 µM |
| B13 | 9.34 µM |
| B14 | 7.69 µM |
| B15 | 0.32 µM |
| B16 | 0.643 µM |

| Binder | IC50 |
| --- | --- |
| B17 | 4.07 µM |
| B18 | 7.52 µM |
| B19 | 5.35 µM |
| B20 | 3.39 µM |
| B21 | 11 µM |
| B22 | 13.1 µM |
| B23 | 10.9 µM |
| B24 | 11 µM |
| B25 | 1.67 µM |
| B26 | 6.63 µM |
| B27 | 8.84 µM |
| B28 | 13.7 µM |
| B29 | 7.46 µM |
| B30 | 8.68 µM |
| B31 | 12.4 µM |
| B32 | 14.6 µM |
